Data: patent publication US20250361268A1, “NOVEL ANTI-INFLAMMATORY PEPTIDE AND USE THEREOF” (NOVACELL TECHNOLOGY INC., priority 2022, published 2025)

B1: peptide of SEQ ID NO 16 (peptide)
peptide: MRYKVM
HELM: PEPTIDE1{[CCCCCCCC(=O)[*:2]].M.R.Y.K.V.[dM].[am]}$$$$V2.0
SMILES: CCCCCCCC(=O)N[C@@H](CCSC)C(=O)N[C@@H](CCCNC(=N)N)C(=O)N[C@@H](Cc1ccc(O)cc1)C(=O)N[C@@H](CCCCN)C(=O)N[C@H](C(=O)N[C@H](CCSC)C(N)=O)C(C)C
B2: peptide of SEQ ID NO 129 (peptide)
peptide: IKFWMM
HELM: PEPTIDE1{I.K.F.W.M.[dM].[am]}$$$$V2.0; N-terminus assumed
SMILES: CC[C@H](C)[C@H](N)C(=O)N[C@@H](CCCCN)C(=O)N[C@@H](Cc1ccccc1)C(=O)N[C@@H](Cc1c[nH]c2ccccc12)C(=O)N[C@@H](CCSC)C(=O)N[C@H](CCSC)C(N)=O
B3: peptide of SEQ ID NO 130 (peptide)
peptide: IKKWMM
HELM: PEPTIDE1{I.K.K.W.M.[dM].[am]}$$$$V2.0; N-terminus assumed
SMILES: CC[C@H](C)[C@H](N)C(=O)N[C@@H](CCCCN)C(=O)N[C@@H](CCCCN)C(=O)N[C@@H](Cc1c[nH]c2ccccc12)C(=O)N[C@@H](CCSC)C(=O)N[C@H](CCSC)C(N)=O
B4: peptide of SEQ ID NO 91 (peptide)
peptide: MKYWYM
HELM: PEPTIDE1{[CCCC(=O)[*:2]].M.K.Y.W.Y.[dM].[am]}$$$$V2.0
SMILES: CCCC(=O)N[C@@H](CCSC)C(=O)N[C@@H](CCCCN)C(=O)N[C@@H](Cc1ccc(O)cc1)C(=O)N[C@@H](Cc1c[nH]c2ccccc12)C(=O)N[C@@H](Cc1ccc(O)cc1)C(=O)N[C@H](CCSC)C(N)=O
B5: peptide of SEQ ID NO 79 (peptide)
peptide: WRYWYM
HELM: PEPTIDE1{W.R.Y.W.Y.[dM].[am]}$$$$V2.0; N-terminus assumed
SMILES: CSCC[C@@H](NC(=O)[C@H](Cc1ccc(O)cc1)NC(=O)[C@H](Cc1c[nH]c2ccccc12)NC(=O)[C@H](Cc1ccc(O)cc1)NC(=O)[C@H](CCCNC(=N)N)NC(=O)[C@@H](N)Cc1c[nH]c2ccccc12)C(N)=O
B6: peptide of SEQ ID NO 132 (peptide)
peptide: IKFKVM
HELM: PEPTIDE1{I.K.F.K.V.[dM].[am]}$$$$V2.0; N-terminus assumed
SMILES: CC[C@H](C)[C@H](N)C(=O)N[C@@H](CCCCN)C(=O)N[C@@H](Cc1ccccc1)C(=O)N[C@@H](CCCCN)C(=O)N[C@H](C(=O)N[C@H](CCSC)C(N)=O)C(C)C
B7: peptide of SEQ ID NO 12 (peptide)
peptide: KMKYKVM
HELM: PEPTIDE1{[CCCCCCCC(=O)[*:2]].K.M.K.Y.K.V.[dM].[am]}$$$$V2.0
SMILES: CCCCCCCC(=O)N[C@@H](CCCCN)C(=O)N[C@@H](CCSC)C(=O)N[C@@H](CCCCN)C(=O)N[C@@H](Cc1ccc(O)cc1)C(=O)N[C@@H](CCCCN)C(=O)N[C@H](C(=O)N[C@H](CCSC)C(N)=O)C(C)C
B8: peptide of SEQ ID NO 77 (peptide)
peptide: RWRYWYM
HELM: PEPTIDE1{R.W.R.Y.W.Y.[dM].[am]}$$$$V2.0; N-terminus assumed
SMILES: CSCC[C@@H](NC(=O)[C@H](Cc1ccc(O)cc1)NC(=O)[C@H](Cc1c[nH]c2ccccc12)NC(=O)[C@H](Cc1ccc(O)cc1)NC(=O)[C@H](CCCNC(=N)N)NC(=O)[C@H](Cc1c[nH]c2ccccc12)NC(=O)[C@@H](N)CCCNC(=N)N)C(N)=O
B9: peptide of SEQ ID NO 153 (peptide)
peptide: RWRYRTM
HELM: PEPTIDE1{R.W.R.Y.R.T.[dM].[am]}$$$$V2.0; N-terminus assumed
SMILES: CSCC[C@@H](NC(=O)[C@@H](NC(=O)[C@H](CCCNC(=N)N)NC(=O)[C@H](Cc1ccc(O)cc1)NC(=O)[C@H](CCCNC(=N)N)NC(=O)[C@H](Cc1c[nH]c2ccccc12)NC(=O)[C@@H](N)CCCNC(=N)N)[C@@H](C)O)C(N)=O
B10: peptide of SEQ ID NO 152 (peptide)
peptide: RWRYRIM
HELM: PEPTIDE1{R.W.R.Y.R.I.[dM].[am]}$$$$V2.0; N-terminus assumed
SMILES: CC[C@H](C)[C@H](NC(=O)[C@H](CCCNC(=N)N)NC(=O)[C@H](Cc1ccc(O)cc1)NC(=O)[C@H](CCCNC(=N)N)NC(=O)[C@H](Cc1c[nH]c2ccccc12)NC(=O)[C@@H](N)CCCNC(=N)N)C(=O)N[C@H](CCSC)C(N)=O
B11: peptide of SEQ ID NO 90 (peptide)
peptide: MKYWYM
HELM: PEPTIDE1{[ac].M.K.Y.W.Y.[dM].[am]}$$$$V2.0
SMILES: CSCC[C@H](NC(C)=O)C(=O)N[C@@H](CCCCN)C(=O)N[C@@H](Cc1ccc(O)cc1)C(=O)N[C@@H](Cc1c[nH]c2ccccc12)C(=O)N[C@@H](Cc1ccc(O)cc1)C(=O)N[C@H](CCSC)C(N)=O
B12: peptide of SEQ ID NO 84 (peptide)
peptide: RMRYWYM
HELM: PEPTIDE1{[CCCCCCCC(=O)[*:2]].R.M.R.Y.W.Y.[dM].[am]}$$$$V2.0
SMILES: CCCCCCCC(=O)N[C@@H](CCCNC(=N)N)C(=O)N[C@@H](CCSC)C(=O)N[C@@H](CCCNC(=N)N)C(=O)N[C@@H](Cc1ccc(O)cc1)C(=O)N[C@@H](Cc1c[nH]c2ccccc12)C(=O)N[C@@H](Cc1ccc(O)cc1)C(=O)N[C@H](CCSC)C(N)=O
B13: peptide of SEQ ID NO 145 (peptide)
peptide: IKYKPM
HELM: PEPTIDE1{[CCCCCCCC(=O)[*:2]].I.K.Y.K.P.[dM].[am]}$$$$V2.0
SMILES: CCCCCCCC(=O)N[C@H](C(=O)N[C@@H](CCCCN)C(=O)N[C@@H](Cc1ccc(O)cc1)C(=O)N[C@@H](CCCCN)C(=O)N1CCC[C@H]1C(=O)N[C@H](CCSC)C(N)=O)[C@@H](C)CC
B14: peptide of SEQ ID NO 126 (peptide)
peptide: MRYYYM
HELM: PEPTIDE1{[ac].M.R.Y.Y.Y.[dM].[am]}$$$$V2.0
SMILES: CSCC[C@H](NC(C)=O)C(=O)N[C@@H](CCCNC(=N)N)C(=O)N[C@@H](Cc1ccc(O)cc1)C(=O)N[C@@H](Cc1ccc(O)cc1)C(=O)N[C@@H](Cc1ccc(O)cc1)C(=O)N[C@H](CCSC)C(N)=O
B15: peptide of SEQ ID NO 155 (peptide)
peptide: RWRYNYM
HELM: PEPTIDE1{R.W.R.Y.N.Y.[dM].[am]}$$$$V2.0; N-terminus assumed
SMILES: CSCC[C@@H](NC(=O)[C@H](Cc1ccc(O)cc1)NC(=O)[C@H](CC(N)=O)NC(=O)[C@H](Cc1ccc(O)cc1)NC(=O)[C@H](CCCNC(=N)N)NC(=O)[C@H](Cc1c[nH]c2ccccc12)NC(=O)[C@@H](N)CCCNC(=N)N)C(N)=O
B16: peptide of SEQ ID NO 128 (peptide)
peptide: IKFWYM
HELM: PEPTIDE1{I.K.F.W.Y.[dM].[am]}$$$$V2.0; N-terminus assumed
SMILES: CC[C@H](C)[C@H](N)C(=O)N[C@@H](CCCCN)C(=O)N[C@@H](Cc1ccccc1)C(=O)N[C@@H](Cc1c[nH]c2ccccc12)C(=O)N[C@@H](Cc1ccc(O)cc1)C(=O)N[C@H](CCSC)C(N)=O
B17: peptide of SEQ ID NO 88 (peptide)
peptide: MRYWYM
HELM: PEPTIDE1{[CCCCCCCC(=O)[*:2]].M.R.Y.W.Y.[dM].[am]}$$$$V2.0
SMILES: CCCCCCCC(=O)N[C@@H](CCSC)C(=O)N[C@@H](CCCNC(=N)N)C(=O)N[C@@H](Cc1ccc(O)cc1)C(=O)N[C@@H](Cc1c[nH]c2ccccc12)C(=O)N[C@@H](Cc1ccc(O)cc1)C(=O)N[C@H](CCSC)C(N)=O
B18: peptide of SEQ ID NO 10 (peptide)
peptide: KMKYKVM
HELM: PEPTIDE1{[ac].K.M.K.Y.K.V.[dM].[am]}$$$$V2.0
SMILES: CSCC[C@H](NC(=O)[C@H](CCCCN)NC(C)=O)C(=O)N[C@@H](CCCCN)C(=O)N[C@@H](Cc1ccc(O)cc1)C(=O)N[C@@H](CCCCN)C(=O)N[C@H](C(=O)N[C@H](CCSC)C(N)=O)C(C)C
B19: peptide of SEQ ID NO 131 (peptide)
peptide: IKFKYM
HELM: PEPTIDE1{I.K.F.K.Y.[dM].[am]}$$$$V2.0; N-terminus assumed
SMILES: CC[C@H](C)[C@H](N)C(=O)N[C@@H](CCCCN)C(=O)N[C@@H](Cc1ccccc1)C(=O)N[C@@H](CCCCN)C(=O)N[C@@H](Cc1ccc(O)cc1)C(=O)N[C@H](CCSC)C(N)=O
B20: peptide of SEQ ID NO 8 (peptide)
peptide: RMRYKVM
HELM: PEPTIDE1{[CCCCCCCC(=O)[*:2]].R.M.R.Y.K.V.[dM].[am]}$$$$V2.0
SMILES: CCCCCCCC(=O)N[C@@H](CCCNC(=N)N)C(=O)N[C@@H](CCSC)C(=O)N[C@@H](CCCNC(=N)N)C(=O)N[C@@H](Cc1ccc(O)cc1)C(=O)N[C@@H](CCCCN)C(=O)N[C@H](C(=O)N[C@H](CCSC)C(N)=O)C(C)C
B21: peptide of SEQ ID NO 9 (peptide)
peptide: KMKYKVM
HELM: PEPTIDE1{K.M.K.Y.K.V.[dM].[am]}$$$$V2.0; N-terminus assumed
SMILES: CSCC[C@H](NC(=O)[C@@H](N)CCCCN)C(=O)N[C@@H](CCCCN)C(=O)N[C@@H](Cc1ccc(O)cc1)C(=O)N[C@@H](CCCCN)C(=O)N[C@H](C(=O)N[C@H](CCSC)C(N)=O)C(C)C

The binders below were run against T1, FPR1 (UniProt P21462 1-350, limits assumed) (assay: cell-based or functional assay).
T1 sequence (looked up): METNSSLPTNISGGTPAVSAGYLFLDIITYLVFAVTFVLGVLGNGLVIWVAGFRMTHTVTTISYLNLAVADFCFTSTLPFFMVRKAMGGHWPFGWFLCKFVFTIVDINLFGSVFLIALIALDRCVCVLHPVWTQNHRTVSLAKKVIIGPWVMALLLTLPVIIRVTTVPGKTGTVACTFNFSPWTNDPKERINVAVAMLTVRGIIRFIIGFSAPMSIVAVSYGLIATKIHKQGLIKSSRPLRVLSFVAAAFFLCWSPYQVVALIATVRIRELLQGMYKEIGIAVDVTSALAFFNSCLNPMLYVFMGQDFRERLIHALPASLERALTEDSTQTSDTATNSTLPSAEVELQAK

EC50 for [Ca2+], > 10 µM:
B1, B2, B3, B4, B5, B6, B7, B8, B9, B10, B11, B12, B13, B14, B15, B16, B17, B18, B19, B20, B21
